In PMC6330309, “Multispecific Antibody Development Platform Based on Human Heavy Chain Antibodies” (Frontiers in Immunology, 2018):

Target: T1, extracellular domain of human BCMA (Homo sapiens, UniProt Q02223)
T1 construct: B cell maturation antigen (BCMA), human, extracellular domain; PDB 4ZFO chain F was only the search model for molecular replacement; For the Octet experiments the methods say that antigens were either expressed in-house (ECD with His-tag) or commercially available
Experiment: crystal structure; BCMA and UniAb VH mixed at a 1:2 molar ratio for 20 min at 4°C, complex isolated by SEC (20 mM PBS, 250 mM NaCl); sitting drop vapor diffusion, 0.2 M sodium malonate pH 4.0, 20% PEG 3350; 2.6 Å; two complexes in the asymmetric unit
Conditions: both partners purified

T1 sequence (Q02223 1-54): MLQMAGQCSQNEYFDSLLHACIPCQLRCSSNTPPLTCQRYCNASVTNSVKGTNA

binding result: binds
B1: anti-BCMA UniAb VH (IgHV3-23) (VHH)
VHH: EVQLVESGGGLVQPGGSLRLSCAASGFTVSSYGMSWVRQAPGKGPEWVSGIRGSDGSTYYADSVKGRFTISRDNSKNTLYLQMNSLRAEDTAVYYCAKQGENDGPFDHRGQGTLVTVS
notes: fully human VH single domain (IgHV3-23) from a UniRat heavy chain-only antibody, with R109 in framework 4 (W101R, Kabat); Human VH used as a single domain, no light chain and no Fc; also called UniAb VH (VH3-23)
